How the values were obtained:
α4β7 integrin = target: T1, α4β7 integrin (human, UniProt P13612 34-970; P26010 20-723); assay: method not stated
T1 construct: Heterodimer; also called alpha4beta7

αEβ7 integrin = target: T2, αEβ7 integrin (human, UniProt P38570 19-1124; P26010 20-723); assay: method not stated
T2 construct: Heterodimer; also called alphaEbeta7; CD103 (αE subunit)
T2 sequence (P38570 19-1124, chain 1 of 2): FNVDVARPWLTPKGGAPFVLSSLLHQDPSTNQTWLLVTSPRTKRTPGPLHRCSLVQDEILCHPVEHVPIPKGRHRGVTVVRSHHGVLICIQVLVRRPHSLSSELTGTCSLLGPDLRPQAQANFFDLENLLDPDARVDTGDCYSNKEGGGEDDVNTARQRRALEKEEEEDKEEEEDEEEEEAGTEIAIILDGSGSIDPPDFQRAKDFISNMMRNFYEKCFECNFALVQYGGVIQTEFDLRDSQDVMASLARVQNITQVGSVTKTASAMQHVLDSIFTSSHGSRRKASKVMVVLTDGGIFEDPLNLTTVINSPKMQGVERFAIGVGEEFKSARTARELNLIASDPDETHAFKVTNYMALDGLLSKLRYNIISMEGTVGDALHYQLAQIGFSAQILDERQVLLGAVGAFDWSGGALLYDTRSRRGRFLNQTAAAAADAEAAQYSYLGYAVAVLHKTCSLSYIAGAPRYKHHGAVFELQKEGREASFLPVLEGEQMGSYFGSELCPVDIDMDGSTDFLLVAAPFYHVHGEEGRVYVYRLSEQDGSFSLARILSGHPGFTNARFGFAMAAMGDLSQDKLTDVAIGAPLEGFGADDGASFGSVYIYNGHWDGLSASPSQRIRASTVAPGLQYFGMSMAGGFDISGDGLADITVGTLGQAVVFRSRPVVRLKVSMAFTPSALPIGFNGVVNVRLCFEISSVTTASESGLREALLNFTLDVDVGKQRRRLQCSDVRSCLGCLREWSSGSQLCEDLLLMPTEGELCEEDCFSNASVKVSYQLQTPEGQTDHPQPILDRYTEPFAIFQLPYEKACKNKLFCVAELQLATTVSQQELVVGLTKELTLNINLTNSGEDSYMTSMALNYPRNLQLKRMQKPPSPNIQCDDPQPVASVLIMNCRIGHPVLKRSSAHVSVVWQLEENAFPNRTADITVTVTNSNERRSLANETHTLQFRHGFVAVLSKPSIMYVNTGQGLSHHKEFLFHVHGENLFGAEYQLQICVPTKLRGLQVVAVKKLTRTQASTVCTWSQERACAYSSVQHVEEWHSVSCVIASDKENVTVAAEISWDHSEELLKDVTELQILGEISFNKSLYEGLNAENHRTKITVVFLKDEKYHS
T2 sequence (P26010 20-723, chain 2 of 2): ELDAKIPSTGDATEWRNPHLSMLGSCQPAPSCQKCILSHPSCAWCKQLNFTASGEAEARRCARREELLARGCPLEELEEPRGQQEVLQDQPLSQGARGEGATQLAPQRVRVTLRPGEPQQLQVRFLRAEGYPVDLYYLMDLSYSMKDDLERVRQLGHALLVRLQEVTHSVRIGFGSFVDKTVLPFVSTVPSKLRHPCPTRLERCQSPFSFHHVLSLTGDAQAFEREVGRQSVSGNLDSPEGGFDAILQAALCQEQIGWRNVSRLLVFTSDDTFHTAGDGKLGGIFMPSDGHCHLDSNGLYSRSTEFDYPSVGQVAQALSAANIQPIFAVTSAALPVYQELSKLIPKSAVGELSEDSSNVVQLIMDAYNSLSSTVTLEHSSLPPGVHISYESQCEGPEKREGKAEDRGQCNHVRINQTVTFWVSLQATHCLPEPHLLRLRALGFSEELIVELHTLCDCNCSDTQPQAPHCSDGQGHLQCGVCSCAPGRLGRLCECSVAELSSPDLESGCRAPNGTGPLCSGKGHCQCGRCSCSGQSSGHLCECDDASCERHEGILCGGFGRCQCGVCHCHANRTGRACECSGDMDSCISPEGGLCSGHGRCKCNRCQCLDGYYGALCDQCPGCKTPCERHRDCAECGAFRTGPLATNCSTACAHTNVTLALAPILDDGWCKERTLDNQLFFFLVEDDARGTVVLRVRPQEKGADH

- Kd (α4β7 integrin): ~116 pM
- Kd (αEβ7 integrin): ~1800 pM
B1: rhuMAb Beta7 (etrolizumab) (antibody, V domains shown)
VH: EVQLVESGGGLVQPGGSLRLSCAASGFFITNNYWGWVRQAPGKGLEWVGYISYSGSTSYNPSLKSRFTISRDTSKNTFYLQMNSLRAEDTAVYYCARTGSSGYFDFWGQGTLVTVSS
VL: DIQMTQSPSSLSASVGDRVTITCRASESVDDLLHWYQQKPGKAPKLLIKYASQSISGVPSRFSGSGSGTDFTLTISSLQPEDFATYYCQQGNSLPNTFGQGTKVEIKR

Reference: patent publication US20210238288A1 (Genentech, published 2021)
